Measured values published in paper PMC4717663.

Molecular target: soluble αVβ3 headpiece (human) (UniProt P06756)
Assay: fluorescence polarisation

**Q.** Which fold-lower affinity than for αVβ6 does the source give for “nonapeptide containing RGD from pro-TGF-β3” here?
**A.** 1000 fold
